Results on one substance are retold here after paper PMC5603801.

This experiment deals with PnpM-His6 (C-terminal His-tagged PnpM, LysR-type transcriptional regulator of Pseudomonas sp. strain WBC-3) (Pseudomonas sp. strain WBC-3). Put plainly: SEC; analytical gel filtration of PnpM-His6 on Hiload Superdex 200 pg (1.6 x 60 cm); 10 mM Tris-HCl pH 7.5, 0.1 M NaCl, 5% glycerol; 0.5 ml/min; buffer with or without PNP; native mass from a calibration curve of standard proteins.

Substance “PnpM-His6 (C-terminal His-tagged PnpM, LysR-type transcriptional regulator of Pseudomonas sp. strain WBC-3) (natural protein)” yielded a stoichiometry N of 4.
